Measurements reported in patent publication US20090181444A1, “MODIFIED CARBOHYDRATE PROCESSING ENZYME” (priority 2002, published 2009).

Tests used:
Type in all cases: biochemical
[1] = Hydrolysis of 4-methylumbelliferyl-β-D-fucoside, initial rates; conditions: 4-MUFuc, 80° C., pH 6.5
Method: (§1) Parameters were determined by the method of initial rates. Activity was measured in time course assays of the hydrolysis of 4-methylumbelliferyl-β-D-glycosides (β-D-gluco, β-D-galacto, β-D-fuco, β-D-manno, β-D-xylo, β-D-glucurono) at 5-15 concentrations (0.001-1.5 mM) incubated at 80° C. in 50 mM sodium phosphate buffer, pH 6.5. Reactions were terminated at 2, 5, 10, 15 min by the addition of 100 μl of ice cold 1M NazCO3, pH 10 and analyzed (Labsystems Fluoroscan Ascent plate reader, […]). KM and kcat were derived by fitting the initial rates to hyperbolic Michaelis-Menten curves using GraFit 4 (Erithacus Software Ltd, Staines, UK).
(§2) Determination of the Michaelis-Menten parameters for the WT and mutant enzymes was performed at pH 6.5 at 80° C. for a broad range of representative, fluorophore-containing 4-methylumbelliferyl glycoside substrates, which allowed activities to be determined with a high degree of sensitivity (Table). Under these optimized assay conditions, the glucoside (Glc), galactoside (Gal) and fucoside (Fuc) substrates were hydrolysed well by SSβG-WT, but the xyloside (Xyl) substrate was hydrolysed relatively poorly (approx. 3% of turnover as determined by kcat compared with β-D-glucoside). […] In all cases the absolute D-stereospecificity and β-stereoselectivity of SSβG was maintained and no activity was detected towards L- or α-glycoside substrates.

[2] = Parallel one-pot glycoside synthesis (transglycosylation to MeOH); conditions: 50° C., 1:9 MeOH:phosphate buffer pH 6.5
Method: Enzyme (WT, […] or E432C, 1 mg) was added to a mixed solution (1 mL) of para-nitrophenyl (pNP) β-D-manno-, galacto-, gluco- and xylo- pyranosides (0.03 mmol of each) in 1:9 MeOH:phosphate buffer (pH 6.5) and incubated at 50° C. for 45 min (WT), 4 h (WT), 8 h (W433C, E432C). After this time the solutions were extracted with EtOAc to remove para-nitrophenol and passed through short Sephadex and Celite:Graphite (1:1) columns to remove protein, pNP-glycoside and remaining para-nitrophenol. Solvent was removed and product mixtures were analysed by ^1H NMR and ESMS. Yields based on donor were calculated from integration of anomeric proton resonances in ^1H NMR (D2O, 500 MHz): α-Gal (δ 5.12, d, […]), α-Glc (δ 5.08, d, 3.8 Hz), α-Xyl (δ 5.04, d, J=3.4 Hz), α-Man (δ 5.03, d, J=1.8 Hz), β-Man (δ 4.75, s), β-Glc (δ 4.49, d, J=8.0 Hz), P-Gal (δ 4.45, d, 7.9 Hz), Me-β-Man (δ 4.44, s), β-Xyl (δ 4.42, d, J=7.8 Hz), Me-β-Glc (δ 4.23, d, J 8.1 Hz), Me-β-Xyl (δ 4.18, d, J=7.8 Hz), Me-β-Gal (δ 4.17, d, J=8.0 Hz).
Scheme 1: Parallel glycoside syntheses using SSβG-WT, -E432C and -W433C as catalysts. […] Such balanced libraries are not produced by SSβG-WT even under varying reaction times.

[3] = Substrate specificity compared across 4-methylumbelliferyl-β-D-glycosides
Method: as §1, §2

B1: WT: Wild type β-glycosidase from Sulfolobus solfataricus (SEQ ID NO: 2), recombinant with N-terminal His6-tag (protein, listed as Sulfolobus solfataricus)
chain: MYSFPNSFRFGWSQAGFQSEMGTPGSEDPNTDWYKWVHDPENMAAGLVSGDLPENGPGYWGNYKTFHDNAQKMGLKIARLNVEWSRIFPNPLPRPQNFDESKQDVTEVEINENELKRLDEYANKDALNHYREIFKDLKSRGLYFILNMYHWPLPLWLHDPIRVRRGDFTGPSGWLSTRTVYEFARFSAYIAWKFDDLVDEYSTMNEPNVVGGLGYVGVKSGFPPGYLSFELSRRHMYNIIQAHARAYDGIKSVSKKPVGIIYANSSFQPLTDKDMEAVEMAENDNRWWFFDAIIRGEITRGNEKIVRDDLKGRLDWIGVNYYTRTVVKRTEKGYVSLGGYGHGCERNSVSLAGLPTSDFGWEFFPEGLYDVLTKYWNRYHLYMYVTENGIADDADYQRPYYLVSHVYQVHRAINSGADVRGYLHWSLADNYEWASGFSMRFGLLKVDYNTKRLYWRPSALVYREIATNGAITDEIEHLNSVPPVKPLRH
modifications: N-terminal His6 tag
For B1, the Km [1] was 11 ± 2 µM, the kcat [1] was 80 ± 2 s⁻¹ and the “Yield of Products, product 1 (β-glycoside of Glc)” value ([2]; 45 min) was 40%. For the same molecule, the “Yield of Products, product 2 (β-glycoside of Gal)” value ([2]; 45 min) was 33%, the “Yield of Products, product 3 (β-glycoside of Man)” value ([2]; 45 min) was 2% and the “Yield of Products, product 4 (β-glycoside of Xyl)” value ([2]; 45 min) was 3%. The “Yield of Products, product 5” value ([2]; 45 min) was 14%, the “Yield of Products, product 6” value ([2]; 45 min) was 8% and the “Yield of Products, product 3 (β-glycoside of Man)” value ([2]; 4 h) was 8%. For the same molecule, the “Yield of Products, product 4 (β-glycoside of Xyl)” value ([2]; 4 h) was 20%, the “Yield of Products, product 5” value ([2]; 4 h) was 33% and the “Yield of Products, product 6” value ([2]; 4 h) was 30%. For the same molecule, the “Yield of Products, product 7” value ([2]; 4 h) was 4%, the “Yield of Products, product 8” value ([2]; 4 h) was 5% and the “specificity range of kcat/KM for Glc:Gal:Xyl:Man” value [3] was 100 fold.
